For 3 compounds, Kd, Km and kcat results are on record in article doi:10.1101/2025.07.27.667015v3 (biorxiv, 2025).

A word on the Kd: it is the constant that tells how readily two partners part at equilibrium. Read a high Kd as a looser complex. As usually defined, the Km is the substrate concentration at which the rate is half of its maximum. The term kcat denotes the number of substrate molecules converted per active site and unit of time at saturation.

The target in data set [1] is yMGL (Yarrowia lipolytica, UniProt Q6CB42). The experiment in a line: OpenSPR, protein immobilised on NTA chip. The class given is binding.
Data set [2] concerns the target yMGL (Yarrowia lipolytica, UniProt Q6CB42, S333A). The experiment in a line: OpenSPR, protein immobilised on NTA chip. The data set is classed as binding.
The test system of the next data set is CSCC[C@H](N)C(=O)O. The experiment in a line: purified protein. Conditions: saturating PLP (5 μM), 50 mM Tris-HCl pH 8.0, 20 °C.

For `Cc1ncc(COP(=O)(O)O)c(C=O)c1O` [PLP], the dissociation constant Kd is 33.1 µM on yMGL [1] and 942 µM at yMGL [2].

As for “yMGL-ΔCTD (Yarrowia lipolytica CLIB122; DEL253-380)”, in the data set on CSCC[C@H](N)C(=O)O, the Michaelis constant (Km) stood at 750 ± 10 µM and the kcat was 0.04 ± 0.00 s⁻¹.

Take yMGL (Yarrowia lipolytica CLIB122): in the data set with CSCC[C@H](N)C(=O)O, the Km came out at 1500 ± 10 µM and the turnover number (kcat) stood at 0.06 ± 0.00 s⁻¹.
